Residue numbers refer to the chain shown, from its start. Read-outs that look alike come from different tables or passages of the source.
What was measured:
[1] = molecular target: T1, human IL-17A (human, UniProt Q16552 24-155); assay: ELISA, captured antibody, serially diluted biotin-IL-17 (Example 1.5.1)
T1 construct: Biotinylated in the ELISA; also called hIL-17; Hu IL-17A
T1 sequence (Q16552 24-155 limits assumed): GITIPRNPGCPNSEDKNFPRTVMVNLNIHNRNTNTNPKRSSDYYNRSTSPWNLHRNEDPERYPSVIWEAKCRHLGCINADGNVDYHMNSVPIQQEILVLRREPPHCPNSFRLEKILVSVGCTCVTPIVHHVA
Protocol: The following protocol is used to characterize the binding of IL-17 antibodies to human IL-17 by enzyme-linked immunosorbent assay (ELISA). […] 1. Coat ELISA plate with 50 μl per well of Goat anti Mouse IgG-Fc at 2 ug/ml, overnight at 4° C. […] 2. Wash plate 3×PBS/Tween. […] 3. Add 50 μl Mab diluted to 1 μg/ml in PBS/0.1% BSA to appropriate wells. Incubate 1 hr at room temperature (RT). […] 4. Wash plate 3× with PBS/Tween. […] 5. Add 50 μl of serial diluted biotin-IL17 (human IL-17, IL-17A/F, cyno IL-17) to appropriate wells. Incubate 1 hr at room temperature (RT). […] 6. Wash plate 3× with PBS/Tween. […] 7. […] Incubate 1 hr at RT. […] 8. Wash plate 3× with PBS/Tween. […] 9. […] 10. Stop reaction with 50 μl 2N H₂SO₄. […] Read absorbance at 450 nm.

[2] = molecular target: cynomolgous monkey (cyno) IL-17A (cynomolgus monkey, UniProt A0A2K5TTB0 24-155); assay: cell-based or functional assay
[3] = molecular target: human IL-17A/F (human, UniProt Q16552 24-155; Q96PD4 31-163); assay: cell-based or functional assay
Target sequence in this assay (Q16552 24-155 limits assumed, chain 1 of 2): as the sequence (Q16552 24-155 limits assumed) above
Target sequence in this assay (Q96PD4 31-163 limits assumed, chain 2 of 2): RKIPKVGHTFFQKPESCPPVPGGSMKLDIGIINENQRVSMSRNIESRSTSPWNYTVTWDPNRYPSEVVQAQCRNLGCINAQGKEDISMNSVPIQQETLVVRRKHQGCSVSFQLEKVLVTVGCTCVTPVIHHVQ

[4] = molecular target: T1, human IL-17A; assay: cell-based or functional assay
[5] = molecular target: T2, human IL-17A (human, UniProt Q16552 24-155); assay: hIL17A ELISA
T2 construct: Recombinant; biotinylated in the ELISA; also called hIL-17; hIL17A
T2 sequence (Q16552 24-155): as the sequence (Q16552 24-155 limits assumed) above
Protocol: The following protocol is used to characterize the binding of IL-17 antibodies to human IL-17 by enzyme-linked immunosorbent assay (ELISA). […] Coat ELISA plate with 50 μl per well of Goat anti Mouse IgG-Fc at 2 ug/ml, overnight at 4° C. […] Wash plate 3×PBS/Tween. […] Add 50 μl Mab diluted to 1 μg/ml in PBS/0.1% BSA to appropriate wells. Incubate 1 hr at room temperature (RT). […] Wash plate 3× with PBS/Tween. […] Add 50 μl of serial diluted biotin-IL17 (human IL-17, IL-17A/F, cyno IL-17) to appropriate wells. Incubate 1 hr at room temperature (RT). […] Wash plate 3× with PBS/Tween. […] Incubate 1 hr at RT. […] Wash plate 3× with PBS/Tween. […] Stop reaction with 50 μl 2N H₂SO₄. […] Read absorbance at 450 nm.

[6] = molecular target: T2, human IL-17A; assay: cell-based or functional assay; remark: listed apart in the source
[7] = molecular target: T3, cynomolgus monkey IL-17A (cynomolgus monkey, UniProt A0A2K5TTB0 24-155); assay: cell-based or functional assay
[8] = molecular target: T4, mouse IL-17A (mouse, UniProt Q62386 26-158, limits assumed); assay: SPR (Biacore 3000), antibody captured by anti-Fc, antigen in solution;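 further: purified recombinant IL-17 antigens flowed over captured antibodies in HBS-EP buffer, global Langmuir one-to-one fit of association and dissociation phases, KD derived from koff over kon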
T4 construct: Purified recombinant protein in SPR; also called MuIL-17A; murine IL-17A
T4 sequence (looked up): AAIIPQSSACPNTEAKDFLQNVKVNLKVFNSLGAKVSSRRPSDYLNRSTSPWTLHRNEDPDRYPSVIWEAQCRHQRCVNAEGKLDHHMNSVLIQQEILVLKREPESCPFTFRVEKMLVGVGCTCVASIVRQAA

[9] = molecular target: T5, rat IL-17A (rat, UniProt Q61453 18-150, limits assumed); assay: as above
T5 construct: Purified recombinant protein in SPR
T5 sequence (looked up): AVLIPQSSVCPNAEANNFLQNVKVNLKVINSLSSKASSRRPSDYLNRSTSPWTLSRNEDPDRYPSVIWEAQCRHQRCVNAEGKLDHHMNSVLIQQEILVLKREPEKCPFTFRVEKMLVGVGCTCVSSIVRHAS

[10] = molecular target: T6, human IL-17A/F (human, UniProt Q16552 24-155; Q96PD4 31-163); assay: as above
T6 construct: Recombinant; biotinylated in the ELISA; also called hIL-17A/F; HuIL-17A/F
T6 sequence (Q16552 24-155, chain 1 of 2): as the sequence (Q16552 24-155 limits assumed) above
T6 sequence (Q96PD4 31-163, chain 2 of 2): as the sequence (Q96PD4 31-163 limits assumed, chain 2 of 2) above

[11] = molecular target: T2, human IL-17A; assay: as above
[12] = molecular target: T3, cynomolgus monkey IL-17A; assay: as above
[13] = molecular target: T2, human IL-17A; assay: cell-based or functional assay; remark: listed apart in the source

Sequence of cynomolgous monkey (cyno) IL-17A (A0A2K5TTB0 entry or part of it): as the sequence (Q16552 24-155 limits assumed) above, with T3A, P8S, N34S, I77V, N78K, P104R counted along it
T3 sequence (A0A2K5TTB0 entry or part of it): as the sequence (Q16552 24-155 limits assumed) above, with T3A, P8S, N34S, I77V, N78K, P104R counted along it

B1: IL17-G9-1 (antibody, V domains shown)
VH: EVQLLESGGGVVQPGRSLRLSCAASGFIFSNYGMHWVRQAPGKGLEWVAVISYDGSNKYYADSVKGRFTISRDNSKNTLYLEMNSLRPEDTAVYYCAKVGASGDYYYSYGLDVWGQGTTVTVSS
VL: QSVLTQPPSASGTPGQTVSISCSGSHSNIGRHPVDWYQQVPGAAPKLLMYYGGYRPSGVPDRFSGSQSGTSASLAISGLQSEDEADYYCATWDDRLVGYVFGSGTKVTVLG
For B1, the EC50 [1] was 0.13 nM, the “Potency (pM), IL-17-driven IL-6 production in HS27 cells” value (“Potency (pM)” below) [2] was 604 pM and the “Potency (pM)” value [3] was 99 pM. The “Potency (pM)” value [4] was 27 pM.

B2: IL17-G9-M1 (antibody, V domains shown)
VH: B1 VH with S56G, N57Y, V99L, G100S, A101L, L111F, V113G
VL: QSVLTQPPSASGTPGQTVSISCSGSKSNIGSHYVHWYQQVPGAAPKLLMYDFGQRPSGVPDRFSGSQSGTSASLAISGLQSEDEADYYCGTWDDWLGGYVFGTGTKVTVLG
With B2 the EC50 [1] was 0.08 nM and the “Potency (pM)” value [4] was 88 pM.

B3: IL17-G9-6 (antibody, V domains shown)
VH: B1 VH with N31D
VL: QSVLTQPPSASGTPGQTVSISCSGRQSNIGNHYVDWYQQVPGAAPKLLIYGDVIRPSGVPDRFSGSQSGTSASLAISGLQSEDEADYYCATWDDWLAGYVFGSGTKVTVLG
In the case of B3, the EC50 [1] is reported as 0.12 nM and the “Potency (pM)” value [4] is reported as 884 pM.

B4: IL17-G9-M2 (antibody, V domains shown)
VH: B1 VH
VL: B2 VL with S25H, K26N, S31Y, M49I, D51G, F52D, Q54W
B4 was tested, and the EC50 [1] was 0.08 nM, the “Potency (pM)” value [2] was 105 pM and the “Potency (pM)” value [3] was 44 pM. The “Potency (pM)” value [4] was 38 pM.

B5: IL17-G9-2 (antibody, V domains shown)
VH: B1 VH with S30R
VL: B1 VL with H26N, M49I, G52D, G53D, Y54Q, R95S, V97G
B5 was tested, and the EC50 [1] was 0.18 nM, the “Potency (pM)” value [2] was 157 pM and the “Potency (pM)” value [3] was 147 pM. For the same binder, the “Potency (pM)” value [4] was 24 pM.

B6: IL17-G9-4 (antibody, V domains shown)
VH: B1 VH
VL: B3 VL with N31R, I49M, G51Y, V53S, W95S, A97G
notes: no own VH entry is printed
With B6 the EC50 [1] was 0.06 nM, the “Potency (pM)” value [2] was 247 pM and the “Potency (pM)” value [3] was 119 pM. For the same binder, the “Potency (pM)” value [4] was 38 pM.

B7: IL17-B6-29 (antibody, V domains shown)
VH: EVQLVQSGAEVKKPGSSVKVSCKASGGSFISYGYNWVRQAPGQGLEWMGGITPFFGTADYAQKFQGRVTITADESTTTAYMELSGLTSDDTAVYYCAREPNDFWNGYYTTHHFDYWGQGTTVTVSS
VL: DVVMTQSPDFQSVTPKEKVTITCRASQNIGSALHWYQQKPDQSPKLLIKYASQSISGVPSRFSGSGSGTDFTLTINGLEAEDAGTYYCHQSTSLPHTFGQGTKLDIKR
In the case of B7, the EC50 [1] is reported as 0.09 nM and the “Potency (pM)” value [4] is reported as 134 pM.

B8: IL17-h5C5.19 (antibody, V domains shown)
VH: QVQLQQSGAELVRPGASVKLSCKALGYTFTDYEFHWVKQTPVHGLEWIGVIHPGNGGTAYNQNFRDKATLTADKSSSTAYMELSSLTSEDSGVYYCTRFLTYEGYFDYWGQGTALTVSS
VL: NIVMTQSPATLSVSPGERATLSCKASQSVSIDVGWFQQKPGQSPRLLIYHASNRYTGVPARFSGSGSGTDFTLTISSLQPEDFAVYFCQQDYSSPYTFGQGTKLEIKR
notes: IgG; constant regions not specified
B8 was tested, and the EC50 [5] was 0.03 nM, the “Potency (pM)” value [6] was 11 pM and the “Potency (pM)” value [7] was 9 pM.

B9: B6-44 (antibody, V domains shown)
VH: EVQLVQSGAEVKKPGSSVKVSCKASGGSFLSYGFSWVRQAPGQGLEWMGGITPFFGLADYAQKFQGRVTITADESTTTAYMELSGLTSDDTAVYYCARESSEFWNGYYCTQDFDLWGQGTTVTVSS
VL: EIVLTQSPDFQSVTPKEKVTITCRASQDIGSDLHWYQQKPDQSPKLLIKYASNSISGVPSRFSGSGSGTDFTLTINGLEAEDAGTYYCHQTAYLPQTFGPGTKVDIK
B9 was tested, and the “Potency (pM)” value [2] was 65 pM, the “Potency (pM)” value [3] was 288 pM and the “Potency (pM)” value [4] was 120 pM.

B10: IL17-h5C5.2 (antibody, V domains shown)
VH: EVQLVQSGAEVKKPGASVKVSCKASGYTFTDYEFHWVRQAPGQGLEWMGVIHPGNGGTAYNQNFRDRVTITADKSTSTAYMELSSLRSEDTAVYYCARFLTYEGYFDYWGQGTLVTVSS
VL: NIVMTQTPKFLLVSPGDRVTITCKASQSVSIDVGWFQQKPGQSPKLLIYHASNRYTGVPDRFTGSGYGTDFTFTVNTVQAEDLAVYFCQQDYSSPYTFGGGTKLELKR
notes: as for B8
For B10, the EC50 [5] was 1.2 nM, the “Potency (pM)” value [6] was 6 pM and the “Potency (pM)” value [7] was 11 pM.

B11: IL17-h5C5.15 (antibody, V domains shown)
VH: B10 VH with M48I, V68A, I70L, A97T
VL: B8 VL with N1E
notes: IgG; constant regions not specified; also called h5C5.15 (VH.1b-Vk.3a)
Work on B11 yielded a Kd [8] of 2.83 nM, a koff [8] of 0.000557 s⁻¹ and a kon [8] of 197000 M⁻¹ s⁻¹. For the same binder, the Kd [9] was 5.8 nM, the koff [9] was 0.0036 s⁻¹ and the kon [9] was 621000 M⁻¹ s⁻¹. It also gave a Kd [10] of 1.43 nM, a koff [10] of 0.00112 s⁻¹ and a kon [10] of 781000 M⁻¹ s⁻¹. It also gave a Kd [11] of 0.458 nM, a koff [11] of 0.000437 s⁻¹ and a kon [11] of 954000 M⁻¹ s⁻¹. The Kd [12] was 0.358 nM, the koff [12] was 0.000216 s⁻¹ and the kon [12] was 603000 M⁻¹ s⁻¹. For the same binder, the EC50 [5] was 0.02 nM, the “Potency (pM)” value [6] was 13 pM and the “Potency (pM)” value [7] was 12 pM.

B12: IL17-h5C5.21 (antibody, V domains shown)
VH: B10 VH with M48I, V68A, I70L, A97T
VL: B8 VL
notes: IgG; constant regions not specified; also called h5C5.21 (VH.1b-Vk.3c)
B12 gave a Kd [8] of 3.06 nM, a koff [8] of 0.000524 s⁻¹ and a kon [8] of 171000 M⁻¹ s⁻¹. It also gave a Kd [9] of 5.97 nM, a koff [9] of 0.0024 s⁻¹ and a kon [9] of 402000 M⁻¹ s⁻¹. For the same binder, the Kd [10] was 1.39 nM, the koff [10] was 0.00111 s⁻¹ and the kon [10] was 801000 M⁻¹ s⁻¹. For the same binder, the Kd [11] was 0.729 nM, the koff [11] was 0.000395 s⁻¹ and the kon [11] was 542000 M⁻¹ s⁻¹. The Kd [12] was 0.406 nM, the koff [12] was 0.00024 s⁻¹ and the kon [12] was 591000 M⁻¹ s⁻¹. The EC50 [5] was 0.03 nM, the “Potency (pM)” value [6] was 9 pM and the “Potency (pM)” value [7] was 9 pM.

B13: IL17-h5C5.14 (antibody, V domains shown)
VH: B10 VH
VL: B8 VL with N1E
notes: IgG; constant regions not specified; also called h5C5.14 (VH.1-Vk.3a)
For B13, the Kd [8] was 1.86 nM, the koff [8] was 0.000494 s⁻¹ and the kon [8] was 266000 M⁻¹ s⁻¹. It also gave a Kd [9] of 5.56 nM, a koff [9] of 0.00398 s⁻¹ and a kon [9] of 716000 M⁻¹ s⁻¹. The Kd [10] was 1.11 nM, the koff [10] was 0.00119 s⁻¹ and the kon [10] was 1.07e+06 M⁻¹ s⁻¹. The Kd [11] was 0.363 nM, the koff [11] was 0.000472 s⁻¹ and the kon [11] was 1.3e+06 M⁻¹ s⁻¹. The Kd [12] was 0.245 nM, the koff [12] was 0.000229 s⁻¹ and the kon [12] was 934000 M⁻¹ s⁻¹. For the same binder, the EC50 [5] was 0.03 nM, the “Potency (pM)” value [6] was 18 pM and the “Potency (pM)” value [7] was 16 pM.

B14: IL17-h5C5.11 (antibody, V domains shown)
VH: B10 VH
VL: B8 VL with N1E, F36Y, S43A, V58I, F87Y
notes: as for B8
For B14, the EC50 [5] was 0.03 nM, the “Potency (pM)” value [6] was 115 pM and the “Potency (pM)” value [7] was 90 pM.

B15: IL17-h5C5.20 (antibody, V domains shown)
VH: B10 VH
VL: B8 VL
notes: as for B8
For B15, the EC50 [5] was 0.03 nM, the “Potency (pM)” value [6] was 12 pM and the “Potency (pM)” value [7] was 13 pM.

B16: IL17-h10F7.4 (antibody, V domains shown)
VH: QVQLQQSGAELVRPGTSVTLSCKASGYIFTDYEIHWVKQTPVHGLEWIGVNDPESGGTFYNQKFDGKAELTADKSSSTAYMELRSLTSEDSGVYYCTRYYRYESFYGMDYWGQGTSITVSS
VL: DIQLTQSPSSLSASVGDRVTITCSASSSISYIYWFQQKPGKSPKRWIYATFELASGVPSRFSGSGSGTDYTLTISSLQPEDFATYYCHQRSSYPWTFGQGTKLEIKR
notes: as for B8
With B16 the EC50 [5] was 0.04 nM and the “Potency (pM)” value [13] was 117 pM.
